Laboratory results as given in patent US6008014.

Biological target: GST-tchvs10a1 fusion protein (plasmid pGEX-4T-2-S10A1) (human)
Experiment: BIAcore (SPR); GST-tchvs10a1 captured on anti-GST antibody as ligand, GST-SR-BI at 200 nM as analyte

response (RU): 220 RU
Substance: GST-SR-BI cytoplasmic domain fusion protein (plasmid pGEX-4T-1-7-5j) (from UniProt Q8WTV0)
